This is an account of results in patent EP0669979B1 (GENENTECH, INC., dated 2005).

The target of assay [1] is T1, C-C chemokine receptor 1 (C-C CKR-1) (human, UniProt P32246 1-355).
T1 construct: Transiently expressed from pRK5 in human embryonic kidney 293 cells; also called JOSH1; cloned C-C CKR-1
T1 sequence: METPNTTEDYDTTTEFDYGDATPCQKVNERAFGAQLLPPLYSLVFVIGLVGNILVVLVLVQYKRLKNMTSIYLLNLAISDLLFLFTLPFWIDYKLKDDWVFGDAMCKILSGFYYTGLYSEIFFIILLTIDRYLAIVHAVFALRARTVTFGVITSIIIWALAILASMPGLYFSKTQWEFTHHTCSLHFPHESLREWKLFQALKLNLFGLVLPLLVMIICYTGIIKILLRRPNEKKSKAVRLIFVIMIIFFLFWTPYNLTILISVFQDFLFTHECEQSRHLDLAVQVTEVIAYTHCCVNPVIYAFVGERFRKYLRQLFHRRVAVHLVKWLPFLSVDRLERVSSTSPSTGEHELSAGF
Nature of the assay: heterologous displacement of 125I-HuMIP-1α on 293 cells expressing C-C CKR-1, Scatchard analysis. In general terms: In a radioligand displacement assay an active substance lowers the binding of a labelled ligand.

In assay [2] the target is T1, C-C chemokine receptor 1 (C-C CKR-1). Briefly: 125I-HuMIP-1α displaced by unlabeled HuMIP-1α on 293 cells expressing C-C CKR-1, 4 °C, Scatchard analysis.
The target is the same in assay [3]. Nature of the assay: heterologous displacement of 125I-RANTES by unlabeled HuMIP-1α on 293 cells expressing C-C CKR-1, Scatchard analysis.

B1: human MIP-1β (HuMIP-1β) (ligand, UniProt P13236 24-92, looked up)
chain: APMGSDPPTACCFSYTARKLPRNFVVDYYETSSLCSQPAVVFQTKRSKQVCADPSESWVQEYVYDLELN
notes: also called HuMIP-1b; MIP-lb
Usually Kd stands for the free concentration of one partner at which half of the binding sites on the other are occupied at equilibrium, for simple one-to-one binding. In assay [1], B1 registered a Kd of 232 nM.

B2: human MIP-1α (HuMIP-1α) (ligand, UniProt P10147 24-92, looked up)
chain: SLAADTPTACCFSYTSRQIPQNFIADYFETSSQCSKPGVIFLTKRSRQVCADPSEEWVQKYVSDLELSA
modifications: ends and bridges not checked; also: 125I-iodinated (chloroglycoluril) where used as tracer
notes: also called HuMIP-1a
In the case of B2, the equilibrium dissociation constant (Kd) in assay [2] stood at 5.1 nM; in assay [3] it was 7.6 nM.

B3: murine MIP-1α (ligand, UniProt P10855 24-92, looked up)
chain: APYGADTPTACCFSYSRKIPRQFIVDYFETSSLCSQPGVIFLTKRNRQICADSKETWVQEYITDLELNA
B3 returned a Kd in assay [1] of 4.2 nM.

B4: RANTES (Regulated on Activation, Normal T Expressed and Secreted) (ligand, UniProt P13501 24-91, looked up)
chain: SPYSSDTTPCCFAYIARPLPRAHIKEYFYTSGKCSNPAVVFVTRKNRQVCANPEKKWVREYINSLEMS
modifications: ends and bridges not checked; also: 125I-labeled where used as tracer
B4 showed a Kd in assay [1] of 468 nM.
